B1: Histone-lysine N-methyltransferase SETD2, residues 2382 to 2430; numbered along this chain, Q9BYW2 (parent)
chain: SPPKPKTIVLPPNWKTARDPEGKIYYYHVITRQTQWDPPTWESPGDDAS
B2: Unconventional myosin-Ie, residues 1051 to 1108; numbered along this chain, Q12965 (parent)
chain: PQVPQCKALYAYDAQDTDELSFNANDIIDIIKEDPSGWWTGRLRGKQGLFPNNYVTKI

± gives the uncertainty stated by the source.

The variants in one data set derive from B1. Kind of data set: abundance fitness (aPCA) (normalised: wild type 0, dead -1); higher = more abundant; growth selection in yeast, the domain comes from the species named. The note with it: Homo sapiens.
As for SPPKPKTIVLPPNWKTARDPEGKIYYYHVITRQTQWDPPTWESPGDDAP [S49P], the abundance fitness stood at 0.043 ± 0.05. Regarding SPPKPKTIVLPPNWKTARDPEGKIYYYHVITRQTQWDPPTWESPGSDAS [D46S], the abundance fitness is -0.167 ± 0.039. On the same count and under the same terms, then SPPKPKTIVLPPNWKTARDPEGKIYYYHVITRQTQWDPPTWESPGQDAS [D46Q], with -0.358 ± 0.1; and SPPKPKTIVLPPNWKTARDPEGKIYYYHVITRQTQWDPPTWESPGYDAS [D46Y], with -0.436 ± 0.14. On the same count and under the same terms, then SPPKPKTIVLPPNWKTARDPEGKIYYYHVITRQTQWDPPTWESPGMDAS [D46M], with -0.297 ± 0.092.

As to SPPKPKTIVLPPNWKTARDPEGKIYYYHVITRQTQWDPPTWESPGNDAS [D46N], the abundance fitness was -0.11 ± 0.043. Regarding SPPKPKTIVLPPNWKTARDPEGKIYYYHVITRQTQWDPPTWESPGWDAS [D46W], the abundance fitness is -0.358 ± 0.084. Still for that read-out and setting: then SPPKPKTIVLPPNWKTARDPEGKIYYYHVITRQTQWDPPTWESPGRDAS [D46R], with -0.286 ± 0.046. Turning to SPPKPKTIVLPPNWKTARDPEGKIYYYHVITRQTQWDPPTWESPGLDAS [D46L], the abundance fitness was -0.053 ± 0.033. The same measure, in the same setting: then SPPKPKTIVLPPNWKTARDPEGKIYYYHVITRQTQWDPPTWESPGPDAS [D46P], with -0.069 ± 0.044. The same measure, in the same setting: then SPPKPKTIVLPPNWKTARDPEGKIYYYHVITRQTQWDPPTWESPGTDAS [D46T], with -0.292 ± 0.087; and SPPKPKTIVLPPNWKTARDPEGKIYYYHVITRQTQWDPPTWESPGVDAS [D46V], with -0.064 ± 0.042.

Variants of B2 are the subject of a further data set. The description is as above. The note with it: Homo sapiens.
Regarding PQVPFCKALYAYDAQDTDELSFNANDIIDIIKEDPSGWWTGRLRGKQGLFPNNYVTKI [Q5F], the abundance fitness is -0.158 ± 0.084. On the same count and under the same terms, the value for PQVPCCKALYAYDAQDTDELSFNANDIIDIIKEDPSGWWTGRLRGKQGLFPNNYVTKI [Q5C] was -0.269 ± 0.095; that for PQVPACKALYAYDAQDTDELSFNANDIIDIIKEDPSGWWTGRLRGKQGLFPNNYVTKI [Q5A] was -0.245 ± 0.064; that for PQVPECKALYAYDAQDTDELSFNANDIIDIIKEDPSGWWTGRLRGKQGLFPNNYVTKI [Q5E] was -0.467 ± 0.081. As to PQIPQCKALYAYDAQDTDELSFNANDIIDIIKEDPSGWWTGRLRGKQGLFPNNYVTKI [V3I], the abundance fitness was -0.145 ± 0.079. Same read-out and setting: then SQVPQCKALYAYDAQDTDELSFNANDIIDIIKEDPSGWWTGRLRGKQGLFPNNYVTKI [P1S], with 0.006 ± 0.089; and VQVPQCKALYAYDAQDTDELSFNANDIIDIIKEDPSGWWTGRLRGKQGLFPNNYVTKI [P1V], with 0.027 ± 0.053; and KQVPQCKALYAYDAQDTDELSFNANDIIDIIKEDPSGWWTGRLRGKQGLFPNNYVTKI [P1K], with 0.169 ± 0.23. The same measure, in the same setting: the value for RQVPQCKALYAYDAQDTDELSFNANDIIDIIKEDPSGWWTGRLRGKQGLFPNNYVTKI [P1R] was -0.362 ± 0.092; that for QQVPQCKALYAYDAQDTDELSFNANDIIDIIKEDPSGWWTGRLRGKQGLFPNNYVTKI [P1Q] was 0.05 ± 0.093. On the same count and under the same terms, then DQVPQCKALYAYDAQDTDELSFNANDIIDIIKEDPSGWWTGRLRGKQGLFPNNYVTKI [P1D], with -0.164 ± 0.2; and CQVPQCKALYAYDAQDTDELSFNANDIIDIIKEDPSGWWTGRLRGKQGLFPNNYVTKI [P1C], with -0.374 ± 0.26; and HQVPQCKALYAYDAQDTDELSFNANDIIDIIKEDPSGWWTGRLRGKQGLFPNNYVTKI [P1H], with 0.305 ± 0.39.

Regarding WQVPQCKALYAYDAQDTDELSFNANDIIDIIKEDPSGWWTGRLRGKQGLFPNNYVTKI [P1W], the abundance fitness was -0.237 ± 0.11. In the case of EQVPQCKALYAYDAQDTDELSFNANDIIDIIKEDPSGWWTGRLRGKQGLFPNNYVTKI [P1E], the abundance fitness was -0.144 ± 0.16. As to AQVPQCKALYAYDAQDTDELSFNANDIIDIIKEDPSGWWTGRLRGKQGLFPNNYVTKI [P1A], the abundance fitness is 0.03 ± 0.074. Take GQVPQCKALYAYDAQDTDELSFNANDIIDIIKEDPSGWWTGRLRGKQGLFPNNYVTKI [P1G]: the abundance fitness was -0.198 ± 0.065. With LQVPQCKALYAYDAQDTDELSFNANDIIDIIKEDPSGWWTGRLRGKQGLFPNNYVTKI [P1L], the abundance fitness was determined as 0.072 ± 0.069. The same measure, in the same setting: the value for TQVPQCKALYAYDAQDTDELSFNANDIIDIIKEDPSGWWTGRLRGKQGLFPNNYVTKI [P1T] was 0.057 ± 0.05; that for PFVPQCKALYAYDAQDTDELSFNANDIIDIIKEDPSGWWTGRLRGKQGLFPNNYVTKI [Q2F] was -0.597 ± 0.46; that for PAVPQCKALYAYDAQDTDELSFNANDIIDIIKEDPSGWWTGRLRGKQGLFPNNYVTKI [Q2A] was -0.091 ± 0.036. On the same count and under the same terms, the value for PDVPQCKALYAYDAQDTDELSFNANDIIDIIKEDPSGWWTGRLRGKQGLFPNNYVTKI [Q2D] was 0.01 ± 0.091; that for PYVPQCKALYAYDAQDTDELSFNANDIIDIIKEDPSGWWTGRLRGKQGLFPNNYVTKI [Q2Y] was -0.373 ± 0.22. Still for that read-out and setting: then PPVPQCKALYAYDAQDTDELSFNANDIIDIIKEDPSGWWTGRLRGKQGLFPNNYVTKI [Q2P], with -0.062 ± 0.069; and PTVPQCKALYAYDAQDTDELSFNANDIIDIIKEDPSGWWTGRLRGKQGLFPNNYVTKI [Q2T], with -0.155 ± 0.11; and PEVPQCKALYAYDAQDTDELSFNANDIIDIIKEDPSGWWTGRLRGKQGLFPNNYVTKI [Q2E], with -0.193 ± 0.079. In the case of PCVPQCKALYAYDAQDTDELSFNANDIIDIIKEDPSGWWTGRLRGKQGLFPNNYVTKI [Q2C], the abundance fitness is -0.193 ± 0.13. Still for that read-out and setting: then PGVPQCKALYAYDAQDTDELSFNANDIIDIIKEDPSGWWTGRLRGKQGLFPNNYVTKI [Q2G], with -0.102 ± 0.054; and PSVPQCKALYAYDAQDTDELSFNANDIIDIIKEDPSGWWTGRLRGKQGLFPNNYVTKI [Q2S], with -0.223 ± 0.084. Still for that read-out and setting: then PVVPQCKALYAYDAQDTDELSFNANDIIDIIKEDPSGWWTGRLRGKQGLFPNNYVTKI [Q2V], with -0.173 ± 0.066; and PRVPQCKALYAYDAQDTDELSFNANDIIDIIKEDPSGWWTGRLRGKQGLFPNNYVTKI [Q2R], with -0.317 ± 0.042; and PWVPQCKALYAYDAQDTDELSFNANDIIDIIKEDPSGWWTGRLRGKQGLFPNNYVTKI [Q2W], with -0.12 ± 0.05. Same read-out and setting: then PIVPQCKALYAYDAQDTDELSFNANDIIDIIKEDPSGWWTGRLRGKQGLFPNNYVTKI [Q2I], with -0.176 ± 0.16; and PNVPQCKALYAYDAQDTDELSFNANDIIDIIKEDPSGWWTGRLRGKQGLFPNNYVTKI [Q2N], with 0.068 ± 0.1; and PHVPQCKALYAYDAQDTDELSFNANDIIDIIKEDPSGWWTGRLRGKQGLFPNNYVTKI [Q2H], with -0.208 ± 0.34.

In the case of PLVPQCKALYAYDAQDTDELSFNANDIIDIIKEDPSGWWTGRLRGKQGLFPNNYVTKI [Q2L], the abundance fitness is -0.106 ± 0.07. Regarding PMVPQCKALYAYDAQDTDELSFNANDIIDIIKEDPSGWWTGRLRGKQGLFPNNYVTKI [Q2M], the abundance fitness came to 0.153 ± 0.061. Regarding PKVPQCKALYAYDAQDTDELSFNANDIIDIIKEDPSGWWTGRLRGKQGLFPNNYVTKI [Q2K], the abundance fitness is -0.09 ± 0.069.
